Test results from patent US20150344570A1 (published 2015).

T1: FcγRIIa R (FcγRIIa, allotype with Arg at position 131), extracellular domain with C-terminal His tag (human, UniProt P12318 34-217)
T1 construct: extracellular domain; also called FcγRIIa R type; 2aR
T1 sequence (looked up): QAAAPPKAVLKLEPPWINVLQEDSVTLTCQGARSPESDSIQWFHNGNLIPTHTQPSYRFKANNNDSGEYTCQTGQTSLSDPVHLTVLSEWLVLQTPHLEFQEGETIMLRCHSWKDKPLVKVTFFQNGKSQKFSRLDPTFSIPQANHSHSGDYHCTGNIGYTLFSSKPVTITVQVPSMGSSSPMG

B1: GpH7-B3 variant S267_03V/GpL16-k0 (antibody, human IgG1, kappa)
heavy: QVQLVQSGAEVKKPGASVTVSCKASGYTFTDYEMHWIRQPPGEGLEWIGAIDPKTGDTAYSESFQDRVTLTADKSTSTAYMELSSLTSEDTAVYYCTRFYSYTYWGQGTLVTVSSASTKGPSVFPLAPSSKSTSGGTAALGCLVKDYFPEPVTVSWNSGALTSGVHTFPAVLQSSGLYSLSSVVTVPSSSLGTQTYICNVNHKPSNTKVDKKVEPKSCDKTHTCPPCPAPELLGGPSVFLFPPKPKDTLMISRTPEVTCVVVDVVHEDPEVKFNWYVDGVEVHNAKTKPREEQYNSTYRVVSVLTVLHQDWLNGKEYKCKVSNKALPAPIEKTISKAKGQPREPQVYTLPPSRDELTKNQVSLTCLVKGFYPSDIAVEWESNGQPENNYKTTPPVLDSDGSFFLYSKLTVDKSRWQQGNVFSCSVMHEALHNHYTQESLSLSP
light: DIVMTQSPLSLPVTPGEPASISCQASESLVHSNRNTYLHWYLQKPGQSPQLLIYKVSNRFSGVPDRFSGSGSGTDFTLKISRVEAEDVGVYYCSQNTHVPPTFGQGTKVEIERTVAAPSVFIFPPSDEQLKSGTASVVCLLNNFYPREAKVQWKVDNALQSGNSQESVTEQDSKDSTYSLSSTLTLSKADYEKHKVYACEVTHQGLSSPVTKSFNRGEC
notes: also called Ho Ab
B2: GpH7-A5/GpH7-B3 variant S337_02A/GpL16-k0 (antibody, human IgG1, kappa)
heavy 1: not shown
heavy 2: not shown
light: B1 light
notes: also called He Ab
B3: GpH7-B3 variant T335_18N/GpL16-k0 (antibody, human IgG1, kappa)
heavy: not shown
light: B1 light
notes: also called Ho Ab
B4: GpH7-B3 variant S324_06M/GpL16-k0 (antibody, human IgG1, kappa)
heavy: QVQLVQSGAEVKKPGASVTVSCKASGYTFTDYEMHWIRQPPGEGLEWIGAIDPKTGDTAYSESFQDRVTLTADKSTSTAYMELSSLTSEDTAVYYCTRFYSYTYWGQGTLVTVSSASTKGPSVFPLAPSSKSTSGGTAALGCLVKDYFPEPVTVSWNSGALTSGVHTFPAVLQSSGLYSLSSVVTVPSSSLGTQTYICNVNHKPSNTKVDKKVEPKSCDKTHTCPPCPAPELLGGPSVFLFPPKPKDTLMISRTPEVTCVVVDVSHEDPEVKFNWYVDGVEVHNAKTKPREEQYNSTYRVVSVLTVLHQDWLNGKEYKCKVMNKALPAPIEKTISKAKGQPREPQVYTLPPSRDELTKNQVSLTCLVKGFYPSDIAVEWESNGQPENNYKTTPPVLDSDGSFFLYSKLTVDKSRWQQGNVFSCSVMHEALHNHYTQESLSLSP
light: B1 light
notes: also called Ho Ab
B5: GpH7-B3 variant Y296_10E/GpL16-k0 (antibody, human IgG1, kappa)
heavy: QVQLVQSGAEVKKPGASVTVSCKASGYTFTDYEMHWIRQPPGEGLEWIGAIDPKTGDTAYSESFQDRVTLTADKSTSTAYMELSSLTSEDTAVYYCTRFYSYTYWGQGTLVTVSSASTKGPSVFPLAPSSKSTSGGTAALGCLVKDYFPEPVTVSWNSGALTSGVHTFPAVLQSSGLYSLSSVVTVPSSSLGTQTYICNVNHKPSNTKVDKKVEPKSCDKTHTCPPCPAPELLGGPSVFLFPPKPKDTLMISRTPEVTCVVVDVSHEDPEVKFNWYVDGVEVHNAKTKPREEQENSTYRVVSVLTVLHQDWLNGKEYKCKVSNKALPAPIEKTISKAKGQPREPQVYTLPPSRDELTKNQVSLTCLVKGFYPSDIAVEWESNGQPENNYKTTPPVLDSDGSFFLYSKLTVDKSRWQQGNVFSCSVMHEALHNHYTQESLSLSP
light: B1 light
notes: also called Ho Ab
B6: GpH7-B3 variant T335_07I/GpL16-k0 (antibody, human IgG1, kappa)
heavy: not shown
light: B1 light
notes: also called Ho Ab
B7: GpH7-B3 variant T335_10E/GpL16-k0 (antibody, human IgG1, kappa)
heavy: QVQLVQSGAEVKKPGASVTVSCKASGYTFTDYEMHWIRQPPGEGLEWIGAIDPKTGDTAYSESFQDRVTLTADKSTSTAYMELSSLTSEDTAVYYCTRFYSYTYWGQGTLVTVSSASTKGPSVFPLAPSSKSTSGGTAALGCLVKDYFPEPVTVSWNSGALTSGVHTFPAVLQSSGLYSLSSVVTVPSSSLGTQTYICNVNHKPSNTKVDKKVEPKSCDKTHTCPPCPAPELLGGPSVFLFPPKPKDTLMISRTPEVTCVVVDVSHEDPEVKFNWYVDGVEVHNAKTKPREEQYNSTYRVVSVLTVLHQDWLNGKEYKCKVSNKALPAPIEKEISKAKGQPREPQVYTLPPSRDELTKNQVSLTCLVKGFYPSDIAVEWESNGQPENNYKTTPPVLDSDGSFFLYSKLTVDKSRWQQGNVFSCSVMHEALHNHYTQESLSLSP
light: B1 light
notes: also called Ho Ab
B8: GpH7-A5/GpH7-B3 variant P331_08L/GpL16-k0 (antibody, human IgG1, kappa)
heavy 1: not shown
heavy 2: not shown
light: B1 light
notes: also called He Ab
B9: GpH7-B3 variant T335_20W/GpL16-k0 (antibody, human IgG1, kappa)
heavy: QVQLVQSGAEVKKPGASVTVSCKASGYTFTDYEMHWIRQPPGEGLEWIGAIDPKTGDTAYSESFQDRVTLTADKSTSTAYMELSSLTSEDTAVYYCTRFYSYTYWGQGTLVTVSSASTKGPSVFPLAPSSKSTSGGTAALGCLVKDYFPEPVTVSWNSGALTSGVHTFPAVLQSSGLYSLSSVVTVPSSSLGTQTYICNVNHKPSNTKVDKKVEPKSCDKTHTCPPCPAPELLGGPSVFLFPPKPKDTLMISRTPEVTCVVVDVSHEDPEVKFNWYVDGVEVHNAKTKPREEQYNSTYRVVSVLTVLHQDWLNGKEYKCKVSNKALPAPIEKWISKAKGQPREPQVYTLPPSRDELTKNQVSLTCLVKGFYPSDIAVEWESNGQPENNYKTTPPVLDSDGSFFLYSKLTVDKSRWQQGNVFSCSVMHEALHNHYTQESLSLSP
light: B1 light
notes: also called Ho Ab
B10: GpH7-B3 variant Y296_13S/GpL16-k0 (antibody, human IgG1, kappa)
heavy: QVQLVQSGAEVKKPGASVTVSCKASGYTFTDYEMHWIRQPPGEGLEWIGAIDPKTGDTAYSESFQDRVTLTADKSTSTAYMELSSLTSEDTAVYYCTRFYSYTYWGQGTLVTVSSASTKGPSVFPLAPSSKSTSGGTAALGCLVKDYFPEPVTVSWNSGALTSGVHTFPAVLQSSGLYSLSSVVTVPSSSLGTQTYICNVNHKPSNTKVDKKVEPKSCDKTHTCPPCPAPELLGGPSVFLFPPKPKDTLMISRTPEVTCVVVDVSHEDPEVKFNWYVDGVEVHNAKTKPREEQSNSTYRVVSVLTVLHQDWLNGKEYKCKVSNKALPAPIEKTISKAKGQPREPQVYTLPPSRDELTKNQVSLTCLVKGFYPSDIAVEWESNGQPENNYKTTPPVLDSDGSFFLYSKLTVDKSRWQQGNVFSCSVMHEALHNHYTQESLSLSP
light: B1 light
notes: also called Ho Ab
B11: GpH7-B3 variant Y296_04F/GpL16-k0 (antibody, human IgG1, kappa)
heavy: not shown
light: B1 light
notes: also called Ho Ab
B12: GpH7-B3 variant S337_10E/GpL16-k0 (antibody, human IgG1, kappa)
heavy: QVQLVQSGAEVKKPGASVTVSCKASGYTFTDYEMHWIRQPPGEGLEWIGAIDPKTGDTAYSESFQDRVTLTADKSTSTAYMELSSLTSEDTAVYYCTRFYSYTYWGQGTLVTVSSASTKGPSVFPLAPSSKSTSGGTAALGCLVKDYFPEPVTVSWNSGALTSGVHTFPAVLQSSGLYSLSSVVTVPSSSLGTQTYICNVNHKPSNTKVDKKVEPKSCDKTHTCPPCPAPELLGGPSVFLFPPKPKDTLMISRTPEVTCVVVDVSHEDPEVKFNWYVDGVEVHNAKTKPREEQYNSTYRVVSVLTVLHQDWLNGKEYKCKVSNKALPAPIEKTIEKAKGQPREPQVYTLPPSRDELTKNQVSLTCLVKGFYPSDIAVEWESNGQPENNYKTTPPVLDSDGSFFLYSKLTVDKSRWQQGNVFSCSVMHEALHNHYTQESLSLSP
light: B1 light
notes: also called Ho Ab
B13: GpH7-A5/GpH7-B3 variant P331_10E/GpL16-k0 (antibody, human IgG1, kappa)
heavy 1: not shown
heavy 2: not shown
light: B1 light
notes: also called He Ab
B14: GpH7-B3 variant Y296_19Q/GpL16-k0 (antibody, human IgG1, kappa)
heavy: not shown
light: B1 light
notes: also called Ho Ab
B15: GpH7-B3 variant S324_04F/GpL16-k0 (antibody, human IgG1, kappa)
heavy: not shown
light: B1 light
notes: also called Ho Ab
B16: GpH7-B3 variant S337_19Q/GpL16-k0 (antibody, human IgG1, kappa)
heavy: not shown
light: B1 light
notes: also called Ho Ab
B17: GpH7-B3 variant S337_08L/GpL16-k0 (antibody, human IgG1, kappa)
heavy: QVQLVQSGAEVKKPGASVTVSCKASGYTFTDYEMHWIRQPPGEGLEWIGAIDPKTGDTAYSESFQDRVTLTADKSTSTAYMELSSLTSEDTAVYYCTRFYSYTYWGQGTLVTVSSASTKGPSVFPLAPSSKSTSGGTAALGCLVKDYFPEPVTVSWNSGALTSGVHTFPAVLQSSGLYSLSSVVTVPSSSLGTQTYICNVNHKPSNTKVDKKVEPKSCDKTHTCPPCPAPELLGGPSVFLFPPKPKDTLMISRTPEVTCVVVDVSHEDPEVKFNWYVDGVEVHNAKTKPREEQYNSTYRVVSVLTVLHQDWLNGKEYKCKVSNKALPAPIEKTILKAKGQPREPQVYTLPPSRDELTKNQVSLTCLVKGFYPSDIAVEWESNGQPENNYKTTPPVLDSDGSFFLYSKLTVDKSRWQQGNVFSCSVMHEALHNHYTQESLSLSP
light: B1 light
notes: also called Ho Ab
B18: GpH7-B3 variant S267_09D/GpL16-k0 (antibody, human IgG1, kappa)
heavy: not shown
light: B1 light
notes: also called Ho Ab
B19: GpH7-B3 variant S337_18N/GpL16-k0 (antibody, human IgG1, kappa)
heavy: not shown
light: B1 light
notes: also called Ho Ab
B20: GpH7-A5/GpH7-B3 variant P331_09D/GpL16-k0 (antibody, human IgG1, kappa)
heavy 1: not shown
heavy 2: not shown
light: B1 light
notes: also called He Ab
B21: GpH7-B3 variant Y296_07I/GpL16-k0 (antibody, human IgG1, kappa)
heavy: not shown
light: B1 light
notes: also called Ho Ab
B22: GpH7-B3 variant S337_04F/GpL16-k0 (antibody, human IgG1, kappa)
heavy: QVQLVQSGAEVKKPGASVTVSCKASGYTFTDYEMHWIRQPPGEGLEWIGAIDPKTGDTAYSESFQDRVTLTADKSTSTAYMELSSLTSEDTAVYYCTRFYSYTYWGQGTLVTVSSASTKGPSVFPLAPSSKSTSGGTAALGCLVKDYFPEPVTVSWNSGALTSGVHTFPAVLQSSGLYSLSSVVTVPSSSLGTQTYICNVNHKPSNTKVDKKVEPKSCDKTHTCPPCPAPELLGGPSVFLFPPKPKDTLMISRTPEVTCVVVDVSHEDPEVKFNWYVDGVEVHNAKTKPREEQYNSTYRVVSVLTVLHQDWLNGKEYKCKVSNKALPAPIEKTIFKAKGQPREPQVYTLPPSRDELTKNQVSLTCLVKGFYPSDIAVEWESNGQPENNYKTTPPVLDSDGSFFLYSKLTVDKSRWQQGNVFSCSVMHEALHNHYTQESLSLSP
light: B1 light
notes: also called Ho Ab
B23: GpH7-B3 variant Y300_18N/GpL16-k0 (antibody, human IgG1, kappa)
heavy: not shown
light: B1 light
notes: also called Ho Ab
B24: GpH7-B3 variant Y296_18N/GpL16-k0 (antibody, human IgG1, kappa)
heavy: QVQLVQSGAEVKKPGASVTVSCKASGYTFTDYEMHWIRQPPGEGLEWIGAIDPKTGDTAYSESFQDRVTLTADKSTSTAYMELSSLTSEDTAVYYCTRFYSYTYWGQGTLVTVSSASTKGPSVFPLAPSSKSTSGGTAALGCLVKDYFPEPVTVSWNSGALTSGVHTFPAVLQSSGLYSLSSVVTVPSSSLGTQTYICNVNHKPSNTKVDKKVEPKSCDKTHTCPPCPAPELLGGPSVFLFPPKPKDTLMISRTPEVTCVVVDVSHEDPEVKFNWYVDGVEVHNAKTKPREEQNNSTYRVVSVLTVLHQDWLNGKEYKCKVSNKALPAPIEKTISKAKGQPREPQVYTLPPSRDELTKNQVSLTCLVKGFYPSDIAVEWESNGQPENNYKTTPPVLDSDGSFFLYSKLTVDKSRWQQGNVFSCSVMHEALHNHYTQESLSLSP
light: B1 light
notes: also called Ho Ab
B25: GpH7-B3 variant S337_20W/GpL16-k0 (antibody, human IgG1, kappa)
heavy: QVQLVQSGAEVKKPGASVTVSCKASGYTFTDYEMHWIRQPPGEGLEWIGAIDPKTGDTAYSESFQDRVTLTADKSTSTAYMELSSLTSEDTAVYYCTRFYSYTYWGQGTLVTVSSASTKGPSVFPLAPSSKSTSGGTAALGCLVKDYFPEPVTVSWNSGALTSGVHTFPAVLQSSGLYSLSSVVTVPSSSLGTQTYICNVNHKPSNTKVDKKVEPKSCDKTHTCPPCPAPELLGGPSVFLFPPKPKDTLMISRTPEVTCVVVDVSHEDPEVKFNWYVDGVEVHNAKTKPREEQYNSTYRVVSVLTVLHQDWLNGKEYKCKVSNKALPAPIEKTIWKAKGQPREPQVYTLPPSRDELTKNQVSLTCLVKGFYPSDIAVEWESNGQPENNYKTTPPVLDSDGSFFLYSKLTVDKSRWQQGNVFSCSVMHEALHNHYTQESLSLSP
light: B1 light
notes: also called Ho Ab
B26: GpH7-B3 variant S298_06M/GpL16-k0 (antibody, human IgG1, kappa)
heavy: not shown
light: B1 light
notes: also called Ho Ab
B27: GpH7-B3 variant S298_08L/GpL16-k0 (antibody, human IgG1, kappa)
heavy: not shown
light: B1 light
notes: also called Ho Ab
B28: GpH7-B3 variant Y296_16H/GpL16-k0 (antibody, human IgG1, kappa)
heavy: not shown
light: B1 light
notes: also called Ho Ab

Biological target: T1, FcγRIIa R (FcγRIIa, allotype with Arg …)
Assay: SPR (Biacore), antibody captured on antigen peptide chip, FcγR as analyte; relative binding
Protocol: Analysis of interaction between objective antibody and the FcγR was carried out using Biacore T100 (GE Healthcare). HBS-EP+ (GE Healthcare) was used as the running buffer, and the measurement temperature was set to 25° C. Chips produced by immobilizing the antigen peptide by the amine coupling method to a Series S Sencor Chip CM5 (GE Healthcare), or alternatively, chips produced by allowing preliminarily biotinylated antigen peptides to interact with and immobilize onto a Series S Sensor Chip SA (certified) (GE Healthcare) were used. Antibodies of interest were captured onto an antigen peptide-immobilized chip, and allowed to interact to each FcγR diluted with running buffer. To regenerate and repeatedly use the chip, the antibodies captured on the chip were washed off by reacting 10 mM glycine-HCl, pH 1.5.

Ho/Con_2aR | He/Con_2aR | Binder
115 % of GpH7-B3/GpL16-k0 (=100) |  | B1
 | 105 % of GpH7-A5/GpH7-B3/GpL16-k0 (=100) | B2
100 % of GpH7-B3/GpL16-k0 (=100) |  | B3
118 % of GpH7-B3/GpL16-k0 (=100) |  | B4
90.2 % of GpH7-B3/GpL16-k0 (=100) |  | B5
107 % of GpH7-B3/GpL16-k0 (=100) |  | B6
109 % of GpH7-B3/GpL16-k0 (=100) |  | B7
 | 102 % of GpH7-A5/GpH7-B3/GpL16-k0 (=100) | B8
101 % of GpH7-B3/GpL16-k0 (=100) |  | B9
88.1 % of GpH7-B3/GpL16-k0 (=100) |  | B10
106 % of GpH7-B3/GpL16-k0 (=100) |  | B11
110 % of GpH7-B3/GpL16-k0 (=100) |  | B12
 | 113 % of GpH7-A5/GpH7-B3/GpL16-k0 (=100) | B13
88.9 % of GpH7-B3/GpL16-k0 (=100) |  | B14
101 % of GpH7-B3/GpL16-k0 (=100) |  | B15
102 % of GpH7-B3/GpL16-k0 (=100) |  | B16
99.4 % of GpH7-B3/GpL16-k0 (=100) |  | B17
167 % of GpH7-B3/GpL16-k0 (=100) |  | B18
103 % of GpH7-B3/GpL16-k0 (=100) |  | B19
 | 102 % of GpH7-A5/GpH7-B3/GpL16-k0 (=100) | B20
83.1 % of GpH7-B3/GpL16-k0 (=100) |  | B21
98.3 % of GpH7-B3/GpL16-k0 (=100) |  | B22
87.6 % of GpH7-B3/GpL16-k0 (=100) |  | B23
93.7 % of GpH7-B3/GpL16-k0 (=100) |  | B24
105 % of GpH7-B3/GpL16-k0 (=100) |  | B25
102 % of GpH7-B3/GpL16-k0 (=100) |  | B26
101 % of GpH7-B3/GpL16-k0 (=100) |  | B27
89.5 % of GpH7-B3/GpL16-k0 (=100) |  | B28
